Values quoted from earlier work as cited in patent US20030175285A1, “Molecule of pharmaceutical interest comprising at its n-terminal a glutamic acid or a glutamine in the form of a physiologically acceptable strong acid” (priority 2000, published 2003).

Details: in 2 months, formulated with adjuvant solution of the Montanide ISA 720 type

EEGAIVGEI
spontaneous cyclization to pyroglutamate: 30%
